{"source": "paper doi:10.1101/2022.10.28.514188", "about": "(bioRxiv, 2022)", "molecules": {"B1": {"name": "CLPB-N127 (human CLPB isoform 2 starting from the PARL cleavage site), wild type (enzyme)", "chain": "YSKSPSNKDAALLEAARANNMQEVSRLLSEGADVNAKHRLGWTALMVAAINRNNSVVQVLLAAGADPNLGDDFSSVYKTAKEQGIHSLEVLITREDDFNNRLNNRASFKGCTALHYAVLADDYRTVKELLDGGANPLQRNEMGHTPLDYAREGEVMKLLRTSEAKYQEKQRKREAEERRRFPLEQRLKEHIIGQESAIATVGAAIRRKENGWYDEEHPLVFLFLGSSGIGKTELAKQTAKYMHKDAKKGFIRLDMSEFQERHEVAKFIGSPPGYVGHEEGGQLTKKLKQCPNAVVLFDEVDKAHPDVLTIMLQLFDEGRLTDGKGKTIDCKDAIFIMTSNVASDEIAQHALQLRQEALEMSRNRIAENLGDVQISDKITISKNFKENVIRPILKAHFRRDEFLGRINEIVYFLPFCHSELIQLVNKELNFWAKRAKQRHNITLLWDREVADVLVDGYNVHYGARSIKHEVERRVVNQLAAAYEQDLLPGGCTLRITVEDSDKQLLKSPELPSPQAEKRLPKLRLEIIDKDSKTRRLDIRAPLHPEKVCNTI"}, "B2": {"name": "CLPB^E425Q (Walker B mutant of CLPB-N127, isoform 2) (enzyme)", "chain": "B1 chain with E299Q"}, "B3": {"name": "CLPB^R178E (enzyme)", "chain": "B1 chain with R52E"}, "B4": {"name": "CLPB^R227E (enzyme)", "chain": "B1 chain with R101E"}, "B5": {"name": "CLPB^Δ201-232 (insertion between AM2 and AM3 deleted) (enzyme)", "chain": "YSKSPSNKDAALLEAARANNMQEVSRLLSEGADVNAKHRLGWTALMVAAINRNNSVVQVLLAAGADPNLGDDFSSFKGCTALHYAVLADDYRTVKELLDGGANPLQRNEMGHTPLDYAREGEVMKLLRTSEAKYQEKQRKREAEERRRFPLEQRLKEHIIGQESAIATVGAAIRRKENGWYDEEHPLVFLFLGSSGIGKTELAKQTAKYMHKDAKKGFIRLDMSEFQERHEVAKFIGSPPGYVGHEEGGQLTKKLKQCPNAVVLFDEVDKAHPDVLTIMLQLFDEGRLTDGKGKTIDCKDAIFIMTSNVASDEIAQHALQLRQEALEMSRNRIAENLGDVQISDKITISKNFKENVIRPILKAHFRRDEFLGRINEIVYFLPFCHSELIQLVNKELNFWAKRAKQRHNITLLWDREVADVLVDGYNVHYGARSIKHEVERRVVNQLAAAYEQDLLPGGCTLRITVEDSDKQLLKSPELPSPQAEKRLPKLRLEIIDKDSKTRRLDIRAPLHPEKVCNTI"}}, "key": {"[1]": {"biological_target": "CLPB-NBD (NBD-only variant, N-terminal ANK domain truncated) (human) (UniProt Q9H078)", "experiment": "cryo-EM 2D classification"}, "CLPB-NBD^E425Q (human)": {"biological_target": "CLPB-NBD^E425Q (human) (UniProt Q9H078)", "experiment": "cryo-EM structure"}, "[2]": {"biological_target": "CLPB^isoform1 (isoform-1 of CLPB) (human)", "experiment": "negative-stain EM + cryo-EM 2D classification"}, "[3]": {"biological_target": "the molecule itself", "experiment": "cryo-EM 2D classification"}, "cryo-EM structure [4]": {"biological_target": "the molecule itself", "experiment": "cryo-EM structure"}, "cryo-EM structure [5]": {"biological_target": "the molecule itself", "experiment": "cryo-EM structure", "remark": "listed apart in the source"}, "[6]": {"biological_target": "the molecule itself", "experiment": "SEC + other: negative-stain EM"}, "SEC": {"biological_target": "the molecule itself", "experiment": "SEC"}}, "note": "Residue numbers refer to the chain shown, from its start. Numbers in names are those of the source. Where “and” joins values, the source holds several entries; their conditions need not be identical. Identical values can stand only once.", "data": [{"molecule": "CLPB-NBD (NBD-only variant, N-terminal ANK domain truncated) (from UniProt Q9H078-2 1-677) (domain or fragment)", "values": [{"measurement": "stoichiometry N", "setting": "[1]", "result": "6 and 7"}]}, {"molecule": "CLPB-NBD^E425Q (from UniProt Q9H078-2 1-677) (domain or fragment)", "values": [{"measurement": "stoichiometry N", "setting": "CLPB-NBD^E425Q (human)", "result": "6 and 7 and 9"}]}, {"molecule": "CLPB^isoform1 (isoform-1 of CLPB) (enzyme)", "values": [{"measurement": "stoichiometry N", "setting": "[2]", "result": 14}]}, {"molecule": "B1", "values": [{"measurement": "stoichiometry N", "setting": "[3]", "result": 12}, {"measurement": "stoichiometry N", "setting": "cryo-EM structure [4]", "result": 14}]}, {"molecule": "B2", "values": [{"measurement": "stoichiometry N", "setting": "cryo-EM structure [5]", "result": 12}]}, {"molecule": "B3", "values": [{"measurement": "binding result", "setting": "[6]", "result": "binds"}]}, {"molecule": "B4", "values": [{"measurement": "binding result", "setting": "[6]", "result": "binds"}]}, {"molecule": "B5", "values": [{"measurement": "binding result", "setting": "SEC", "result": "binds"}]}]}
